This note sets out measurements from PMC314469, “Protein Interaction Networks by Proteome Peptide Scanning” (PLoS Biology, 2004).

The labels stand for the following.
T1: Boi1 SH3 (BOI1_YEAST), P38041
T1 chain: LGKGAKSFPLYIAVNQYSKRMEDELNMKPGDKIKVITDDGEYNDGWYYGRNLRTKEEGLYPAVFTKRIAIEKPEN

T2: Boi2 SH3 (BOI2_YEAST), P39969
T2 chain: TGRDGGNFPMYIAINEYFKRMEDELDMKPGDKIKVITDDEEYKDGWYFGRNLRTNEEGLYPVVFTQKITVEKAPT

T3: Myo5 SH3 (MYO5_YEAST), Q04439
T3 chain: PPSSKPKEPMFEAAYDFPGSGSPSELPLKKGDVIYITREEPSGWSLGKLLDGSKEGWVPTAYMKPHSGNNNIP

T4: Rvs167 SH3 (RV167_YEAST), P39743
T4 chain: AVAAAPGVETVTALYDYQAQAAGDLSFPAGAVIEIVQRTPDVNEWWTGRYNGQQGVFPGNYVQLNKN

T5: Yfr024 SH3 (LSB3_YEAST), P43603
T5 chain: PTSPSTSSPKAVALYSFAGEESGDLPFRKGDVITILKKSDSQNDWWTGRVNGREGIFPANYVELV

T6: Yhr016c SH3 (YSC84_YEAST), P32793
T6 chain: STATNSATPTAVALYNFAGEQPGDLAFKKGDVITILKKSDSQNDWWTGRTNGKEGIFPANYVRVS

B1: YDL220C 702-715 (peptide)
chain: KHEPKKSPTTPALA
B2: YJL042W 327-340 (peptide)
chain: KFDAKGRPIPPHPD
B3: YMR190C 828-841 (peptide)
chain: KFFKREYPDIPMIA
B4: YOR168W 628-641 (peptide)
chain: KEFFRLTPNQPVGL
B5: YCR068W 315-328 (peptide)
chain: KGVLKEYPMRPYGS
B6: YNL265C 154-167 (peptide)
chain: KIIKKSSPSVPKEE

The target of one experiment is T1, Boi1 SH3 (BOI1_YEAST), P38041. In words: SPOT array.
B1 displayed a normalised SPOT signal, Boehringer light units (BLU); mean over the file's lines of this peptide of 442.
In turn, B2 registered a normalised SPOT signal, Boehringer light units (BLU); mean over the file's lines of this peptide of 460.
Regarding B3, the normalised SPOT signal, Boehringer light units (BLU); mean over the file's lines of this peptide came to 201.
The same measure, in the same setting: to B4 belongs 136; to B5, 251.
As for B6, the normalised SPOT signal, Boehringer light units (BLU); mean over the file's lines of this peptide was found to be 389.

A further experiment addresses T2, Boi2 SH3 (BOI2_YEAST), P39969. In words: SPOT array.
Molecule B1 yielded a normalised SPOT signal, Boehringer light units (BLU); mean over the file's lines of this peptide of 36.2.
Still for that read-out and setting: to B2 belongs 3.5.
The same measure, in the same setting: to B3 belongs 20.2; to B4, -0; to B5, 14.
Still for that read-out and setting: the figure for B6 is 0.6.

The next experiment has as its target T3, Myo5 SH3 (MYO5_YEAST), Q04439. In words: SPOT array.
B1 displayed a normalised SPOT signal, Boehringer light units (BLU); mean over the file's lines of this peptide of 726.
For the molecule B2, the normalised SPOT signal, Boehringer light units (BLU); mean over the file's lines of this peptide was 53.5.
In turn, B3 registered a normalised SPOT signal, Boehringer light units (BLU); mean over the file's lines of this peptide of 155.
Still for that read-out and setting: to B4 belongs 43.8; to B5, 117.
The same measure, in the same setting: the figure for B6 is 242.

A further experiment deals with T4, Rvs167 SH3 (RV167_YEAST), P39743. In words: SPOT array.
With B1, the normalised SPOT signal, Boehringer light units (BLU); mean over the file's lines of this peptide was 30.5.
Still for that read-out and setting: to B2 belongs 58.6; to B3, 127; to B4, 175.
Consider B5, for which the normalised SPOT signal, Boehringer light units (BLU); mean over the file's lines of this peptide came out at 38.3.
In the case of B6, the normalised SPOT signal, Boehringer light units (BLU); mean over the file's lines of this peptide came out at 176.

The target of another experiment is Sho1 SH3 (SHO1_YEAST), P40073. In words: SPOT array.
Sho1 SH3 (SHO1_YEAST), P40073, sequence (P40073 295-366): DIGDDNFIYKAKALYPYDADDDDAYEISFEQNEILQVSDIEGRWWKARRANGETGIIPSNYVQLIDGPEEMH
Consider B1, for which the normalised SPOT signal, Boehringer light units (BLU); mean over the file's lines of this peptide is 21.3.
For the molecule B2, the normalised SPOT signal, Boehringer light units (BLU); mean over the file's lines of this peptide came to 27.1.
Same read-out and setting: the figure for B3 is 359.
With B4, the normalised SPOT signal, Boehringer light units (BLU); mean over the file's lines of this peptide is 25.9.
Molecule B5 came in with a normalised SPOT signal, Boehringer light units (BLU); mean over the file's lines of this peptide of 78.4.
Same read-out and setting: the figure for B6 is 1230.

The next experiment concerns the target T5, Yfr024 SH3 (LSB3_YEAST), P43603. Briefly: SPOT array.
Molecule B1 came in with a normalised SPOT signal, Boehringer light units (BLU); mean over the file's lines of this peptide of 19.7.
Molecule B2 showed a normalised SPOT signal, Boehringer light units (BLU); mean over the file's lines of this peptide of 224.
The same measure, in the same setting: the figure for B3 is 120; for B4 it is 166.
Turning to B5, the normalised SPOT signal, Boehringer light units (BLU); mean over the file's lines of this peptide stood at 1160.
On the same count and under the same terms, to B6 belongs 191.

The next experiment concerns the target T6, Yhr016c SH3 (YSC84_YEAST), P32793. In words: SPOT array.
As to B1, the normalised SPOT signal, Boehringer light units (BLU); mean over the file's lines of this peptide is 26.8.
Still for that read-out and setting: to B2 belongs 39.4; to B3, 42.3.
On to B4, for which the normalised SPOT signal, Boehringer light units (BLU); mean over the file's lines of this peptide turned out to be 14.9.
The same measure, in the same setting: the figure for B5 is 134; for B6 it is 12.1.
